# Assays:
# [1] = target: SHP-1 phosphopeptide ADKEKSKG-pS-LKRK (SEQ ID NO:298) (human); test: ELISA on phosphopeptides synthesized in microtiter wells; settings: scale: normalized
# [2] = target: SHP-1 phosphopeptide AHAKASRT-pS-SKHKEDVY (SEQ ID NO:291) (human); test: as above; settings: scale: normalized
# [3] = target: SHP-1 phosphopeptide HAKASRTS-pS-KHKEDVYE (SEQ ID NO:294) (human); test: as above; settings: scale: normalized
# [4] = target: SHP-1 phosphopeptide HGSFLARP-pS-RKNQGDFS (SEQ ID NO:300) (human); test: as above; settings: scale: normalized
# [5] = target: SHP-1 phosphopeptide KKKLEVLQ-pS-QKGQESEY (SEQ ID NO:292) (human); test: as above; settings: scale: normalized
# [6] = target: SHP-1 phosphopeptide KNQGDFSL-pS-VRVGDQVT (SEQ ID NO:296) (human); test: as above; settings: scale: normalized
# [7] = target: SHP-1 phosphopeptide LKGRGVHG-pS-FLARPSRK (SEQ ID NO:299) (human); test: as above; settings: scale: normalized
# [8] = target: SHP-1 phosphopeptide MKNAHAKA-pS-RTSSKHKE (SEQ ID NO:289) (human); test: as above; settings: scale: normalized
# [9] = target: SHP-1 phosphopeptide PLNCSDPT-pS-ERWYHGHM (SEQ ID NO:297) (human); test: as above; settings: scale: normalized
# [10] = target: SHP-1 phosphopeptide PSEPGGVL-pS-FLDQINQR (SEQ ID NO:293) (human); test: as above; settings: scale: normalized
# [11] = target: SHP-1 phosphopeptide PWTFLVRE-pS-LSQPGDFV (SEQ ID NO:295) (human); test: as above; settings: scale: normalized
# [12] = target: SHP-1 phosphopeptide RVILQGRD-pS-NIPGSDYI (SEQ ID NO:290) (human); test: as above; settings: scale: normalized
# [13] = target: LIMK-2 peptide … (SEQ ID NO:121) (human); test: pPKC Ab binding to biotinylated peptide on avidin-coated plate
# [14] = target: LIMK-2 peptide … (SEQ ID NO:121) after phosphorylation by PKC-theta (human); test: as above
# [15] = target: MLK3 peptide … (SEQ ID NO:76) (human); test: as above
# [16] = target: MLK3 peptide … (SEQ ID NO:76) after phosphorylation by PKC-theta (human); test: as above
# [17] = target: LIMK-2 peptide … (SEQ ID NO:121) after phosphorylation by PKC-theta (human); test: pPKC Ab binding to biotinylated peptide on avidin-coated plate; signal after minus signal without PKC-theta
# [18] = target: MLK3 peptide … (SEQ ID NO:76) after phosphorylation by PKC-theta (human); test: as above
substance,measurement,setting,value
"phospho-PKC motif antibody (Phospho-(Ser) PKC Substrate Antibody, Cell Signaling Technology)",Binding of pPKC antibody,[1],100
same,Binding of pPKC antibody,[2],12
same,Binding of pPKC antibody,[3],7
same,Binding of pPKC antibody,[4],39
same,Binding of pPKC antibody,[5],11
same,Binding of pPKC antibody,[6],3
same,Binding of pPKC antibody,[7],54
same,Binding of pPKC antibody,[8],18
same,Binding of pPKC antibody,[9],0
same,Binding of pPKC antibody,[10],9
same,Binding of pPKC antibody,[11],5
same,Binding of pPKC antibody,[12],13
same,pPKC Ab Signal on peptide without exposure to PKC-theta,[13],0.02
same,pPKC Ab Signal on peptide after exposure to PKC-theta phosphorylation,[14],1.13
same,pPKC Ab Signal on peptide without exposure to PKC-theta,[15],0.07
same,pPKC Ab Signal on peptide after exposure to PKC-theta phosphorylation,[16],1.02
same,pPKC Ab Signal amount dependent on PKC phosphorylation,[17],1.11
same,pPKC Ab Signal amount dependent on PKC phosphorylation,[18],0.95

# Reference: US20050064507A1, “Determining kinase specificity” (priority 2003, published 2005)
